Results: paper PMC7511445 (Journal of immunology (Baltimore, Md. : 1950), 2020)
Residue numbers refer to the chain shown, from its start. In names and notes the source's numbering stands.

B1: phosphorylated full-length human IRF-3 S396A (natural protein, UniProt Q14653 1-427, looked up)
chain: MGTPKPRILPWLVSQLDLGQLEGVAWVNKSRTRFRIPWKHGLRQDAQQEDFGIFQAWAEATGAYVPGRDKPDLPTWKRNFRSALNRKEGLRLAEDRSKDPHDPHKIYEFVNSGVGDFSQPDTSPDTNGGGSTSDTQEDILDELLGNMVLAPLPDPGPPSLAVAPEPCPQPLRSPSLDNPTPFPNLGPSENPLKRLLVPGEEWEFEVTAFYRGRQVFQQTISCPEGLRLVGSEVGDRTLPGWPVTLPDPGMSLTDRGVMSYVRHVLSCLGGGLALWRAGQWLWAQRLGHCHTYWAVSEELLPNSGHGPDGEVPKDKEGGVFDLGPFIVDLITFTEGSGRSPRYALWFCVGESWPQDQPWTKRLVMVKVVPTCLRALVEMARVGGASSLENTVDLHIANSHPLSLTSDQYKAYLQDLVEGMDFQGPGES
modifications: phosphorylated in vitro by GST-mTBK1; the phosphorylated residues are not listed
B2: phosphorylated full-length human IRF-3 E388A (natural protein, UniProt Q14653 1-427, looked up)
chain: B1 chain with E388A, A396S
modifications: phosphorylated in vitro by GST-mTBK1; the phosphorylated residues are not listed
B3: phosphorylated full-length human IRF-3 R285A/K313A (natural protein, UniProt Q14653 1-427, looked up)
chain: B1 chain with R285A, K313A, A396S
modifications: phosphorylated in vitro by GST-mTBK1; the phosphorylated residues are not listed
B4: phosphorylated full-length human IRF-3 K313A (natural protein, UniProt Q14653 1-427, looked up)
chain: B1 chain with K313A, A396S
modifications: phosphorylated in vitro by GST-mTBK1; the phosphorylated residues are not listed
B5: phosphorylated full-length human IRF-3 H290A/K313A (natural protein, UniProt Q14653 1-427, looked up)
chain: B1 chain with H290A, K313A, A396S
modifications: phosphorylated in vitro by GST-mTBK1; the phosphorylated residues are not listed
B6: phosphorylated full-length human IRF-3 H288A/H290A/K313A (natural protein, UniProt Q14653 1-427, looked up)
chain: B1 chain with H288A, H290A, K313A, A396S
modifications: phosphorylated in vitro by GST-mTBK1; the phosphorylated residues are not listed
B7: phosphorylated full-length human IRF-3 R285A (natural protein, UniProt Q14653 1-427, looked up)
chain: B1 chain with R285A, A396S
modifications: phosphorylated in vitro by GST-mTBK1; the phosphorylated residues are not listed
B8: phosphorylated full-length human IRF-3 H290A (natural protein, UniProt Q14653 1-427, looked up)
chain: B1 chain with H290A, A396S
modifications: phosphorylated in vitro by GST-mTBK1; the phosphorylated residues are not listed
B9: phosphorylated full-length human IRF-3 S339A (natural protein, UniProt Q14653 1-427, looked up)
chain: B1 chain with S339A, A396S
modifications: phosphorylated in vitro by GST-mTBK1; the phosphorylated residues are not listed
B10: phosphorylated full-length human IRF-3 H288A (natural protein, UniProt Q14653 1-427, looked up)
chain: B1 chain with H288A, A396S
modifications: phosphorylated in vitro by GST-mTBK1; the phosphorylated residues are not listed

Molecular target: the molecule itself
Test: native gel or EMSA

| Protein | binding result |
| --- | --- |
| B1 | binds |

Molecular target: the molecule itself
Test: SEC

| Protein | binding result |
| --- | --- |
| B2 | binds |
| B3 | binds |
| B4 | binds |
| B5 | binds |
| B6 | binds |
| B7 | binds |
| B8 | binds |
| B9 | binds |
| B10 | binds |
